The values below come from article PMC7893194.

The target of this experiment is interferon α (IFNα) (UniProt P01563). In words: SPR.

B1: human IFNAR1 (receptor)
chain: KNLKSPQKVEVDIIDDNFILRWNRSDESVGNVTFSFDYQKTGMDNWIKLSGCQNITSTKCNFSSLKLNVYEEIKLRIRAEKENTSSWYEVDSFTPFRKAQIGPPEVHLEAEDKAIVIHISPGTKDSVMWALDGLSFTYSLVIWKNSSGVEERIENIYSRHKIYKLSPETTYCLKVKAALLTSWKIGVYSPVHCIKTTVENELPPPENIEVSVQNQNYVLKWDYTYANMTFQVQWLHAFLKRNPGNHLYKWKQIPDCENVKTTQCVFPQNVFQKGIYLLRVQASDGNNTSFWSEEIKFDTEIQAFLLPPVFNIRSLSDSFHIYIGAPKQSGNTPVIQDYPLIYEIIFWENTSNAERKIIEKKTDVTVPNLKPLTVYCVKARAHTMDEKLNKSSVFSDAVCEKTKPGNTSKIWLIVGICIALFALPFVIYAAKVFLRCINYVFFPSLKPSSSIDEYFSEQPLKNLLLSTSEEQIEKCFIIENISTIATVEETNQTDEDHKKYSSQTSQDSGNYSNEDESESKTSEELQQDFV
As to B1, the Kd turned out to be 4.58 nM.
